Source: paper PMC5651886

Molecular target: pre-fusion RSV F DS-Cav1 (human respiratory syncytial virus (hRSV A strain))
Test: SEC; UPLC on a BEH200 size exclusion chromatography column (Waters Acquity UPLC); final purified protein after thrombin cleavage, 10 mM potassium phosphate pH 7.2

“pre-fusion RSV F DS-Cav1 (natural protein)” was tested. Which stoichiometry N did it give?
The stoichiometry N was 3.
